# Measured values taken from publication doi:10.1101/2020.12.23.423990.
# Values joined by “and” are separate entries in the source; they are usually repeats but may differ in a detail not shown here. Identical values can stand only once.
# Target: nucleocapsid variant NC-1 (circularly permuted Aquifex aeolicus lumazine synthase with the arginine-rich peptide λN+ appended) (Aquifex aeolicus)
# Test: cryo-EM structure
substance,measurement,value
nucleocapsid variant NC-1 (circularly permuted Aquifex aeolicus lumazine synthase with the arginine-rich peptide λN+ appended),stoichiometry N,180 and 120
